These results are taken from patent publication US20040071694A1.

For this assay, the target named is biotinylated EpoR (Abbott CHO cell derived ref.# RB69084:4) (UniProt P19235). In words: immunofluorescence microscopy on EpoR-coated sheep red blood cells.
biotinylated EpoR (Abbott CHO cell derived ref.# RB69084:4), sequence (P19235 25-250 limits assumed): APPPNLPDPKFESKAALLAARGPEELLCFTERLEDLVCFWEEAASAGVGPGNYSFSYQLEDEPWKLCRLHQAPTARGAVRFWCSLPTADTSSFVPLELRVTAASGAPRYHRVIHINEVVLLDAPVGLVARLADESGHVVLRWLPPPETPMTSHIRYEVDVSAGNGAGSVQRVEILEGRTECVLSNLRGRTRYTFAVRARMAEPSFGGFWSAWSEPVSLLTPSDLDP

In turn, “murine antiEpoR antibody (R&D Systems Cat.# MAB307)” registered an immunofluorescence score (arbitrary scale of 0-4) (score out of 4) of 4.
